Results reported in US20230212304A1 (BIOSION, published 2023).

Key:
[1] = target: T1, recombinant human CTLA4 protein with human IgG1 Fc tag at the C-terminus (Acro biosystems, Cat#CT4-H5255) (human, UniProt P16410 37-162); assay: capture ELISA: antibody captured on coated plate (anti-human IgG Fc for the chimeric antibodies), biotin human CTLA4-Fc, streptavidin-HRP, OD(450-630)
T1 construct: bought protein; also called human CTLA4-Fc; CTLA4-Fc; not shown: human IgG1 Fc tag at the C-terminus
T1 sequence (looked up): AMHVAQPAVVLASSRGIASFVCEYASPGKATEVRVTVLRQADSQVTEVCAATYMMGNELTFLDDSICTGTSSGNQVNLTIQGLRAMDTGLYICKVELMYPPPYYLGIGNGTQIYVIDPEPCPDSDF

[2] = target: T2, recombinant human CTLA4-his protein (Acro biosystems, Cat#CT4-H5229) (human, UniProt P16410 37-162); assay: SPR, Biacore; antibody captured on anti-human IgG CM5 chip, CTLA4-his as analyte
T2 construct: bought recombinant protein; not shown: his tag
T2 sequence (looked up): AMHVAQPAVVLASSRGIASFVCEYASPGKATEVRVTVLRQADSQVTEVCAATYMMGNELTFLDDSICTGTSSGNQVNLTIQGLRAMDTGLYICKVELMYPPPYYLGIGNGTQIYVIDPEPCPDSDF
Protocol: (§1) Un-reacted moieties on the biosensor surface were blocked with ethanolamine. […] The antigen-antibody association kinetics was followed for 2 minutes and the dissociation kinetics was followed for 10 minutes. The association and dissociation curves were fit to a 1:1 Langmuir binding model using BIAcore evaluation software. […]

[3] = target: T3, cynomolgus monkey CTLA4-his protein (Acro biosystems, Cat#CT4-C5227) (cynomolgus monkey, UniProt G7PL88 36-161); assay: as above
T3 construct: bought recombinant protein; also called Cynomolgus CTLA4-his; not shown: his tag
T3 sequence: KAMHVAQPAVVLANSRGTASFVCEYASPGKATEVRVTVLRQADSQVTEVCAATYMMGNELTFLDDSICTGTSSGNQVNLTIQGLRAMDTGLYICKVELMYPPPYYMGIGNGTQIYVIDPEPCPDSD
Protocol: as §1

[4] = target: T1, recombinant human CTLA4 protein with …; assay: competitive ELISA: antibody pre-mixed with biotin human CTLA4-Fc, added to plate coated with the benchmark; competitor: coated Yervoy
Protocol: Plates were washed once with wash buffer, blocked with 200 µl PBST with 5% w/v non-fatty milk, incubated for 2 hours at 37° C., and washed 4 times.
After incubation at 37° C. for 40 minutes, plates were washed 4 times again using wash buffer. Then the plates were added and incubated with 100 µl/well streptavidin conjugated HRP (1:10000 dilution in PBST, Jackson Immuno Research, Cat#016-030-084, 100 µl/well) for 40 minutes at 37° C. Plates were finally washed using wash buffer. Finally, TMB was added and the reaction was stopped using 1M H₂SO₄, and the absorbance of the each well was read on a microplate reader using dual wavelength mode with 450 nm for TMB and 630 nm as the reference wavelength, then the OD (450-630) values were plotted against antibody concentration. Data was analyzed using Graphpad Prism software and IC₅₀ values were reported.
(§2) In the capture ELISA assay, the 96-well micro plates were coated with 2 µg/ml goat anti-human IgG (AffiniPure Goat Anti-Human IgG, F(ab′)₂ fragment specific, Jackson Immunoresearch, Cat#109-005-097) instead of the goat anti-mouse IgG F(ab′)₂ fragment, 100 µl/well.

[5] = target: T2, recombinant human CTLA4-his protein …; assay: BLI, Octet; antibody at 5 ug/ml on AHC sensor, CTLA4-his as analyte
Protocol: (§3) Briefly, AHC biosensors (anti-human IgG Fc capture, from ForteBio) were presoaked with 10 mM glycine (pH 1.5) for 3 seconds, and then dipped in a well with running buffer (0.5% w/v BSA in PBST) for 3 seconds, the soaking and dipping steps were repeated for three times. […] A new baseline was run for 180 seconds in another well with running buffer. […] Finally, sensors were presoaked with 10 mM glycine (pH 1.5) for 3 seconds, and then were dipped in a well with running buffer for 3 seconds, the soaking and dipping steps repeated for three times. The association and dissociation curves were fit to a 1:1 Langmuir binding model using ForteBio Data Analysis 8.1.

[6] = target: T1, recombinant human CTLA4 protein with …; assay: capture ELISA (plate coated with goat anti-human IgG F(ab')2 per paragraph 181), biotin human CTLA4-Fc, streptavidin-HRP, OD(450-630)
Protocol: Plates were washed once with wash buffer (PBS+0.05% v/v Tween-20, PBST) and then blocked with 200 µl/well blocking buffer (PBST with 5% w/v non-fatty milk) for 2 hours at 37° C. […] After a final wash, plates were incubated with 100 µl/well substrate TMB (Innoreagents, Cat#TMB-S-002). The reaction was stopped in 15 minutes at room temperature with 50 µl/well 1M H₂SO₄, and the absorbance of the each well was read on a microplate reader using dual wavelength mode with 450 nm for TMB and 630 nm as the reference wavelength, then the OD (450-630) values were plotted against antibody concentration. Data was analyzed using Graphpad Prism software and EC₅₀ values were reported.
as §2

[7] = target: T1, recombinant human CTLA4 protein with …; assay: cell based blocking FACS: antibody pre-mixed with human CTLA4-Fc, added to Daudi cells; blocked ligands: cell surface CD80/CD86
[8] = target: T1, recombinant human CTLA4 protein with …; assay: cell-based or functional assay
[9] = target: T1, recombinant human CTLA4 protein with …; assay: cell based blocking FACS: antibody pre-mixed with human CTLA4-Fc, added to Daudi cells; blocked ligands: cell surface CD80/CD86; remark: listed apart in the source
Protocol: Daudi cells were harvested from cell culture flasks at the log phase, washed twice and re-suspended in PBS containing 2% v/v Fetal Bovine Serum (FACS buffer). […] Cells were washed twice and re-suspended in FACS buffer. Fluorescence was measured using a Becton Dickinson FACS Canto II-HTS equipment. Data was analyzed using Graphpad Prism software and IC₅₀ values were reported.

[10] = target: T2, recombinant human CTLA4-his protein …; assay: BLI, Octet RED96; antibody on AHC sensor, CTLA4-his as analyte
Protocol: as §3

B1: chimeric D1D5 anti-CTLA4 antibody (antibody, human IgG4 S228P, kappa, V domains shown)
VH: EVKLVESGGGLVKPGGSLKLSCAASGFTFSDYGMAWVRQAPGKGPEWVAFISNLAYSVYYADTETGRFTISREDAKNTLYLEMSSLRSEDTAMYYCARSGLPYAMDYWGQGTSVTVSS
VL: DIQMTQTTSSLSASLGDRVTISCRASQDISNYLNWYQQKPDGTVKLLIYYISRLHSGVPSRFSGSGSGTDFSLTISNLEQEDIATYFCQQGRMLPWTFGGGTRLEIKR
notes: mouse variable domains on human IgG4/kappa, made in 293F cells
With B1 the EC50 [1] was 0.992 nM, the Kd [2] was 1.93 nM and the koff [2] was 0.000404 s⁻¹. The kon [2] was 209000 M⁻¹ s⁻¹, the Kd [3] was 0.968 nM and the koff [3] was 0.000505 s⁻¹. The kon [3] was 521000 M⁻¹ s⁻¹, the IC50 [4] was 0.785 nM and the Kd [5] was < 0.001 nM. For the same binder, the koff [5] was < 1e-07 s⁻¹, the kon [5] was 132000 M⁻¹ s⁻¹ and the EC50 [6] was 0.575 nM. The IC50 [7] was 12.6 nM, the “EC50 of IL-2 release (GS-J1 T cells + GS-C1/CD80 cells + human CTLA4-Fc, IL-2 HTRF)” value [8] was 82.1 nM and the IC50 [9] was 6 nM. For the same binder, the Kd [10] was 5.32 nM, the koff [10] was 0.00166 s⁻¹ and the kon [10] was 312000 M⁻¹ s⁻¹.
